Two molecules from patent publication US20090258926A1 (CENTRE NATIONAL DE LA RECHERCHE SCIENTIFIQUE, published 2009) can be followed below.

The test deals with importin α of the cellular nuclear import machinery (endogenous, in Hs68 human fibroblasts). The test can be described thus: cell-based or functional assay.

Take Ac-GALFLGFLGAAGSTMGAWSQPKKKRKV-cysteamide (not fully specified) [MPG peptide (wild-type MPG), tested as MPG/DNA complex with plasmid]: the “luciferase expression after 12 hrs in synchronized Hs68 cells, relative to expression after 48 hrs” value was determined as 65%.
For Ac-GALFLGFLGAAGSTMGAWSQPKSKRKV-cysteamide (not fully specified) [MPG^ΔNLS peptide, tested as MPG^ΔNLS/DNA complex with plasmid], the “transfection efficiency (luciferase) after 48 hrs relative to MPG” value amounted to 72%.
